Test results from publication PMC6748615.
Like-named read-outs stand apart in the source and are kept apart here.

B1: rat FcRn (receptor)
chain 1: AEPRLPLMYHLAAVSDLSTGLPSFWATGWLGAQQYLTYNNLRQEADPCGAWIWENQVSWYWEKETTDLKSKEQLFLEAIRTLENQINGTFTLQGLLGCELAPDNSSLPTAVFALNGEEFMRFNPRTGNWSGEWPETDIVGNLWMKQPEAARKESEFLLTSCPERLLGHLERGRQNLEWKEPPSMRLKARPGNSGSSVLTCAAFSFYPPELKFRFLRNGLASGSGNCSTGPNGDGSFHAWSLLEVKRGDEHHYQCQVEHEGLAQPLTVDLDSPARSS
chain 2: IQKTPQIQVYSRHPPENGKPNFLNCYVSQFHPPQIEIELLKNGKKIPNIEMSDLSFSKDWSFYILAHTEFTPTETDVYACRVKHVTLKEPKTVTWDRDM

Columns and labels:
[1] = molecular target: biotinylated human FcRn (human) (UniProt P55899); experiment: FcRn affinity chromatography
UniProt P55899, sequence (P55899 24-297, chain 1 of 2): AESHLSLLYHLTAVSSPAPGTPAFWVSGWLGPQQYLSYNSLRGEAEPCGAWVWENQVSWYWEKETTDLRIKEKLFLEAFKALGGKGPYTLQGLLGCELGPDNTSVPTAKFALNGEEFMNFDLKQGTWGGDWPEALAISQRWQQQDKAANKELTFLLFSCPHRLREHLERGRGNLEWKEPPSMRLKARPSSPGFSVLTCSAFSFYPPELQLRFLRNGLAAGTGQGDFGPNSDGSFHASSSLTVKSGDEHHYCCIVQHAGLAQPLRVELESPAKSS
UniProt P55899, sequence (P61769 21-119, chain 2 of 2, further chain): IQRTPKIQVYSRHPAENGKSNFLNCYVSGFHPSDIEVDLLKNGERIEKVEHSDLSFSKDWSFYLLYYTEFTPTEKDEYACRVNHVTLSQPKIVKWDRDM

[2] = molecular target: rat FcRn (rat) (UniProt P13599); experiment: SPR
[3] = molecular target: biotinylated human FcRn (human) (UniProt P55899); experiment: SPR
[4] = molecular target: Human CD16a (FcγRIIIa-V158) (human) (UniProt P08637); experiment: SPR
[5] = molecular target: biotinylated human FcRn (human) (UniProt P55899); experiment: SPR; remark: listed apart in the source
[6] = molecular target: biotinylated cynomolgus FcRn (cynomolgus) (UniProt Q8SPV9)
UniProt Q8SPV9, sequence (Q8SPV9 24-297, chain 1 of 2): as the sequence (P55899 24-297, chain 1 of 2) above, with N39D, E44Q, G99S, S189G, S190N, L217M, S269T counted along it
UniProt Q8SPV9, sequence (Q8SPW0 21-119, chain 2 of 2, further chain): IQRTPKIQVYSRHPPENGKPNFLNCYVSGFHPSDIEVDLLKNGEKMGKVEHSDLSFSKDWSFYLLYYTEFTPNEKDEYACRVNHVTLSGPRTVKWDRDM

[7] = molecular target: biotinylated human FcRn (human) (UniProt P55899)
[8] = molecular target: mAb1 N434Y; experiment: BLI
[9] = molecular target: mAb1 N434F; experiment: BLI
[10] = molecular target: mAb1 M252Y; experiment: BLI

Molecule | elution pH [1] [pH] | Kd [2] [nM] | Kd [3] [nM] | koff [3] [s⁻¹] | kon [3] [M⁻¹ s⁻¹] | steady state RU, pH 7.4 [2] [RU] | steady state RU, pH 7.4 [3] [RU] | also measured
mAb1 T307E (antibody) | 7.58 | 141 | 8130 | 0.298 | 43700 |  |  | 
mAb1 T307Q (antibody) | 7.86 | 58 | 5720 | 0.215 | 39600 |  |  | affinity fold change vs WT [4]: 1 fold
mAb1 YTE (M252Y/S254T/T256E) (antibody) | 8.14 |  | 342 |  | 143000 | 53.9 | 13.2 | affinity fold change vs WT [4]: 0.52 fold; steady state RU, pH 7.4 [5]: 13.1 RU
mAb2 YD (M252Y/T256D) (antibody) |  |  |  |  |  |  |  | plasma elimination half-life t1/2 in cynomolgus monkeys, 2.5 mg/kg i.v. [6]: 23.5 days; plasma elimination half-life t1/2 in hFcRn Tg32 transgenic mice, 2.5 mg/kg i.v. [7]: 17.5 days
mAb1 T307M (antibody) | 7.4 | 279 |  |  |  |  |  | 
mAb1 MDQN (DQ: T256D/T307Q) (antibody) | 7.92 | 9.54 | 232 | 0.872 | 37600 | 39.1 | 10.7 | steady state RU [4]: 103 RU
mAb1 T307F (antibody) | 7.61 | 131 |  |  |  |  |  | 
mAb1 N434Y (antibody) | 8.46 | 23 | 137 | 0.052 | 359000 | 47 | 22.6 | affinity fold change vs WT [4]: 1.41 fold
mAb1 N434P (antibody) | 7.56 | 194 |  |  |  |  |  | 
mAb1 WT (model IgG1) (antibody) | 7.37 | 207 | 2380 | 0.386 | 162000 |  |  | affinity fold change vs WT [4]: 1 fold
mAb2 DQ (T256D/T307Q) (antibody) |  |  |  |  |  |  |  | plasma elimination half-life t1/2 in hFcRn Tg32 transgenic mice, 2.5 mg/kg i.v. [7]: 24.5 days
mAb1 YETN (M252Y/T256E) (antibody) | 7.83 | 8.43 | 128 | 0.757 | 59200 | 55.1 | 9.8 | steady state RU [4]: 58.5 RU
mAb1 YTWN (M252Y/T307W) (antibody) | 8.14 | 5.21 | 118 |  | 48300 | 66.1 | 15.9 | steady state RU [4]: 67.5 RU
mAb1 YDTN (YD: M252Y/T256D) (antibody) | 8.29 | 5.86 | 93.6 | 0.593 | 63300 | 56 | 9.7 | steady state RU [4]: 67.7 RU
mAb1 T307W (antibody) | 7.75 | 111 | 8740 |  |  |  |  | 
mAb1 T256D (antibody) | 7.82 | 86 | 6700 |  |  |  |  | 
mAb1 YDQN (M252Y/T256D/T307Q) (antibody) | 8.51 | 5.12 | 115 | 0.282 | 24600 | 65.2 | 19.8 | steady state RU [4]: 59.2 RU

Molecule | elution pH [1] [pH] | Kd [2] [nM] | Kd [3] [nM] | koff [3] [s⁻¹] | kon [3] [M⁻¹ s⁻¹] | steady state RU, pH 7.4 [2] [RU] | steady state RU, pH 7.4 [3] [RU] | also measured
mAb1 E380C (antibody) | 7.18 | 6310 |  |  |  |  |  | 
mAb2 DW (T256D/T307W) (antibody) |  |  |  |  |  |  |  | plasma elimination half-life t1/2 in cynomolgus monkeys, 2.5 mg/kg i.v. [6]: 20.4 days; plasma elimination half-life t1/2 in hFcRn Tg32 transgenic mice, 2.5 mg/kg i.v. [7]: 20.1 days
mAb1 AAA (T307A/E380A/N434A) (antibody) | 7.94 | 77 | 1780 | 0.144 | 83700 | 23.6 | 13.9 | affinity fold change vs WT [4]: 0.89 fold
mAb1 MDWN (DW: T256D/T307W) (antibody) | 7.92 | 8.24 | 169 | 0.892 | 52900 | 42.1 | 12.2 | steady state RU [4]: 126 RU
mAb1 Y436N (antibody) | 7.22 | 233 |  |  |  |  |  | 
mAb1 K288D (antibody) | 7.33 | 149 |  |  |  |  |  | 
mAb1 Y436W (antibody) | 7.39 | 1140 |  |  |  |  |  | 
mAb1 LS (M428L/N434S) (antibody) | 8.29 | 74 | 272 | 0.052 | 193000 | 24.8 | 18.3 | affinity fold change vs WT [4]: 1.04 fold; steady state RU, pH 7.4 [5]: 18.5 RU
mAb1 K288N (antibody) | 7.39 | 190 |  |  |  |  |  | 
mAb1 Y436H (antibody) | 7.33 | 131 |  |  |  |  |  | 
mAb1 M252Y (antibody) | 7.88 | 25 | 3100 |  |  |  |  | 
mAb1 YEQN (M252Y/T256E/T307Q) (antibody) | 8.12 | 7.76 | 218 | 0.405 | 18500 | 61.8 | 15.2 | steady state RU [4]: 43.5 RU
mAb1 T307A (antibody) | 7.61 | 132 |  |  |  |  |  | 
mAb1 T256E (antibody) | 7.63 | 113 |  |  |  |  |  | 
mAb1 N434F (antibody) |  | 26 | 165 |  |  | 54.9 | 20.1 | 
B1 |  |  |  |  |  |  |  | fold slower off rate than WT [8]: > 1.8 fold; fold slower off rate than WT [9]: > 1.8 fold; fold slower off rate than WT [10]: > 1.8 fold
